Where no end group is shown, it is not given here. [ ]: non-standard residue; d: D form. pT = C[C@@H](OP(=O)(O)O)[C@H](N)C(=O)O; pS = N[C@@H](COP(=O)(O)O)C(=O)O
Assays:
Test in all cases: ITC
[1] = target: T1, Mad1^CTD Q627A (human, UniProt Q9Y6D9 597-718, Q627A)
T1 sequence: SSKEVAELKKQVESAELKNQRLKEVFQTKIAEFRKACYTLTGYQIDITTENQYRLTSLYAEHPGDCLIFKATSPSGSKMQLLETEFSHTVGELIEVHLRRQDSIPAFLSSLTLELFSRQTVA

[2] = target: T2, Mad1^CTD I643A (human, UniProt Q9Y6D9 597-718, I643A)
T2 sequence: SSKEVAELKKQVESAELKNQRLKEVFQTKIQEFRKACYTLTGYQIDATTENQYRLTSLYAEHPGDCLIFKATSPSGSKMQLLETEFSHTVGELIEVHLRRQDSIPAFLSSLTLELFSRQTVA

[3] = target: T3, Mad1^CTD R650A (human, UniProt Q9Y6D9 597-718, R650A)
T3 sequence: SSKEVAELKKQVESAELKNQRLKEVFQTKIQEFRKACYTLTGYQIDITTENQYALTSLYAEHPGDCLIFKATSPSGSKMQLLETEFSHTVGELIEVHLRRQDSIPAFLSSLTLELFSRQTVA

[4] = target: T4, Mad1CTD K614A (Homo sapiens)
T4 chain: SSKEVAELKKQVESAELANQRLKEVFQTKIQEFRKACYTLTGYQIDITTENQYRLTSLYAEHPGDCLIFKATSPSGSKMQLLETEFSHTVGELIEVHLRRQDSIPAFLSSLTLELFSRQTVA

B1: doubly phosphorylated Bub1^CD1 peptide (pSer459-pThr461) (peptide)
peptide: KVQP[pS]P[pT]VHTKEALGFIMNMFQAPTS
B1 was tested, and the Kd [1] was 2.4 µM, the Kd [2] was 1.4 µM and the Kd [3] was 1.1 µM. The Kd [4] was 2.4 µM.
